Source: paper PMC3315329

Assays:
[1] = molecular target: 40S ribosomal subunits (wild type) (S. cerevisiae (endogenous in yeast)) (UniProt P38011); test: cross-linking + co-sedimentation
[2] = molecular target: 40S ribosomal subunits of asc1Δ cells (lacking ASC1) (S. cerevisiae (endogenous in yeast)) (UniProt P32905); test: cross-linking + co-sedimentation
UniProt P32905, sequence (P32905 whole entry, looked up, stated change not applied, tested part not stated): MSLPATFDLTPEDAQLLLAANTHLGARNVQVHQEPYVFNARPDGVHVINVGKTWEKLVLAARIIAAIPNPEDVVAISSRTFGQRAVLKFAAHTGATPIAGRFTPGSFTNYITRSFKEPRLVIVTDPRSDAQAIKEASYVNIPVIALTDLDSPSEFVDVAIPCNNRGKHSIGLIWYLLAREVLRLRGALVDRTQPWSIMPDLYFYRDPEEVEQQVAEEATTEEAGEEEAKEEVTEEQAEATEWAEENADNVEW

UniProt P38011, sequence (P38011 whole entry, looked up, tested part not stated): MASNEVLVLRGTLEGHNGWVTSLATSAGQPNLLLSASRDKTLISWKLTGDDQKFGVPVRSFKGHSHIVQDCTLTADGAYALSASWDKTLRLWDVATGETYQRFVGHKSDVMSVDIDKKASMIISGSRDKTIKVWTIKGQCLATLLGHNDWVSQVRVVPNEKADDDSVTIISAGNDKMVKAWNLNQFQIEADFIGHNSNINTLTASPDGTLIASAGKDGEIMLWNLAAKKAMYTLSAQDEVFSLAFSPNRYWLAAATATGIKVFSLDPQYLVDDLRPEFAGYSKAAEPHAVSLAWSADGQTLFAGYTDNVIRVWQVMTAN

Substance	reduction of the 40S-bound amount in nip1-Δ60 cells relative to wt [1]	reduction of the eIF/40S ratio in nip1-743A752 cells relative to wt [1]	reduction of the 40S-associated amount relative to wt [2]
eIF5 (from UniProt P38431 1-405) (natural protein)	20%	60%	50%
eIF2 (from UniProt P20459 1-304; P09064 1-285; P32481 1-527) (complex)			50%
